From patent US20150071856A1, “ANTAGONISTIC PEPTIDES FOR FRIZZLED-1 AND FRIZZLED-2” (Universiteit Maastricht, priority 2013, published 2015)

Legend:
Fzd-1 and -2 = assay: Binding of rhodamine-labeled UM206 to frozen sections of mouse kidney and small intestine and its blocking; details: UM206-rhodamine 1.10^−8 M; UM207 1.10^−7 M, Wnt3a 1.10^−8 M
Procedure: Specificity of the binding site was confirmed by prior incubation of the tissue sections with UM207 (1.10^−7 M) or recombinant Wnt3a (1.10^−8 M).
One-half of the hearts of the mice was embedded in paraffin and cut in 4 μm sections. The paraffin sections were rehydrated and washed in PBS. One section was stained with AZAN, allowing an accurate determination of the infarct size. To visualize the myofibroblasts in the infarct area, the sections were incubated with an antibody directed against α-smooth muscle actin (Sigma-Aldrich), followed by incubation with the peroxidase-conjugated secondary antibody (Vector laboratories). Nuclei were visualized by hematoxylin. Photos were taken with a Leica (CTR500, 63×/0.85) camera and analyzed with the Quantimet program (QWin/QGo). An examiner blinded to the groups of the animals obtained all measurements. For the experiments with Rhodamine-labeled UM206, frozen sections (4 μm) of mouse kidney and small intestine were used.

frizzled-2 (rFzd-2) = biological target: T1, frizzled-2 (rFzd-2) (Rattus norvegicus, UniProt Q08464); assay: Activity assay: luciferase reporter in HEK superTOPflash cells transfected with frizzled-2; assay type: cell-based; details: FIG. 3
T1 construct: expressed in transfected cells; host or cells: HEK293 superTOPflash (transient, Fugene6, pcDNA3.1/hygro)
Procedure: Human embryonic kidney (HEK) cells were used for screening. These cells have a luciferase construct stably transfected into the genome (see FIG. 2A), such that when the frizzled receptor is activated and β-catenin is increased, the luciferase is activated by transcription and light can be measured.
The peptides were tested by transfecting the frizzled-1 or the frizzled-2 receptor and addition of UM206(S-S) to the cell culture. For testing antagonistic activity, UM206 was added and the natural ligand Wnt3a was added, which is a natural stimulus for the canonical pathway.
Day 2: Transfection 12-Well Plates • heat Fugene6 and DNA 15 minutes at RT • 2 ml serum-free medium in tube • add 3 μl fugene • add 2 μg DNA • incubate 30 minutes at RT • wash with PBS • add 50 μl transfectiemix • add 1 ml antibiotica-free medium
Day 3: Add Conditioned Medium or UM206
Day 4: Luciferase Activity Measurements • remove medium • wash with PBS • add 500 μl ⅕ lysisbuffer • shake for 60 minutes • centrifuge in tube • 20 μl lysaat and 50 μl luciferase in new tube for measurement • vortex • measure
Three areas of high homology that contained two cysteines are underlined (UM207), (UM208) and (UM206). In FIGS. 9B through 9D, the inhibitory effect of these three peptides on Wnt3a-induced luciferase activity in HEK293-superTOPflash is shown. […]

canonical Wnt signaling = assay: Activity assay (Example 1): TOPflash luciferase reporter in HEK (HEK293-superTOPflash) cells, receptor not specified; assay type: cell-based, human; details: no Fzd transfection

T1 sequence (Q08464 29-570): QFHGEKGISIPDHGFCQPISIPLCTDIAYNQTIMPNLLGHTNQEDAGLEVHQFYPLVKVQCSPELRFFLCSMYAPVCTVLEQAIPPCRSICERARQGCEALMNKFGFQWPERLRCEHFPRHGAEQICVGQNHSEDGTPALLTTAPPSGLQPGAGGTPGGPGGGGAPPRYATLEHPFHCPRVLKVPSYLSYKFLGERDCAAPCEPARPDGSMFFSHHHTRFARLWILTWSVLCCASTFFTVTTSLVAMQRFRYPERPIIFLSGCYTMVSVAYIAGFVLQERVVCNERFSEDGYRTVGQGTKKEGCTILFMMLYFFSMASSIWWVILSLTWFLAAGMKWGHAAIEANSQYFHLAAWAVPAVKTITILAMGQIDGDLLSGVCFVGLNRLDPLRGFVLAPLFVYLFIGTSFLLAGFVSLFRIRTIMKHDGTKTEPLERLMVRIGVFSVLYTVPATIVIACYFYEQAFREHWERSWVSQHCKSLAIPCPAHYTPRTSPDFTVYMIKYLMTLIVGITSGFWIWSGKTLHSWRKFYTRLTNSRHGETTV

B1: Wnt3a: natural ligand of frizzled, natural stimulus for the canonical pathway; recombinant or conditioned medium (protein)
chain: SYPIWWSLAVGPQYSSLGSQPILCASIPGLVPKQLRFCRNYVEIMPSVAEGIKIGIQECQHQFRGRRWNCTTVHDSLAIFGPVLDKATRESAFVHAIASAGVAFAVTRSCAEGTAAICGCSSRHQGSPGKGWKWGGCSEDIEFGGMVSREFADARENRPDARSAMNRHNNEAGRQAIASHMHLKCKCHGLSGSCEVKTCWWSQPDFRAIGDFLKDKYDSASEMVVEKHRESRGWVETLRPRYTYFKVPTERDLVYYEASPNFCEPNPETGSFGTRDRTCNVSSHGIDGCDLLCCGRGHNARAERRREKCRCVFHWCCYVSCQECTRVYDVHTCK
blocking of UM206-rhodamine binding by prior incubation (Fzd-1 and -2): completely abolished the binding of UM206-rhodamine
concentration-dependent increase of the luciferase activity, in combination with frizzled-2 (frizzled-2 (rFzd-2)): twelve-fold
increase of luciferase activity (canonical Wnt signaling): ~450 fold
